Assays:
TevN201-ZFE (synthetic) = test: cell_activity
I-BmoI = test: cleavage_in_vitro; conditions: one-site plasmid; two-site 0.096
Chain of I-BmoI (chain, as listed by the source): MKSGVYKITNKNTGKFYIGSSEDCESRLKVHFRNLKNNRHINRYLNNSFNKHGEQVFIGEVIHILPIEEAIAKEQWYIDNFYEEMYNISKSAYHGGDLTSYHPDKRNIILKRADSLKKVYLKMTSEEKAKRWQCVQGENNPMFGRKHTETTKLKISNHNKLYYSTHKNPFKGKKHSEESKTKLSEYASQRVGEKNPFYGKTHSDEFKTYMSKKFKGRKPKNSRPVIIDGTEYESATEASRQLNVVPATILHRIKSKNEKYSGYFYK

Chain of TevN201-ZFE (synthetic) (chain, as listed by the source): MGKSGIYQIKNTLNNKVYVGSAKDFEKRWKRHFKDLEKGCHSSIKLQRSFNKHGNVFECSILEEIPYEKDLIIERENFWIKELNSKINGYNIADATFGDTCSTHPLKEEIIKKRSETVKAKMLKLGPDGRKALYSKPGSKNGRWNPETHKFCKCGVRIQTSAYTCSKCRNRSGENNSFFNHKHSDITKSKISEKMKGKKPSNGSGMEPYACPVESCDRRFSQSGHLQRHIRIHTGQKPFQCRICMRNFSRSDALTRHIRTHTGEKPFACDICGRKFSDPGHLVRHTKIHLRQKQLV

Substance | activity (TevN201-ZFE (synthetic)) | activity (I-BmoI)
p11-lacY-wtx1 plasmid without target site | 0 % survival | –
pBmoIHS thyA homing site plasmid | – | 0.105 s-1 (kobs)

From US20130210151
